Measured values published in article PMC3776922.

Target: LAT-1(37-542)^GPS(T530A)::6xHis (C. elegans)
Test: AUC; sedimentation equilibrium of the dimer fraction of the LAT-1 ectodomain; 20 uM - 60 uM protein, native conditions in PBS, 20°C / room temperature, 48 hr at 17,000 and 20,000 rpm, ideal monodisperse model

stoichiometry N: 2
Substance: LAT-1(37-542)^GPS(T530A)::6xHis (domain or fragment)
